Source: the supplement of paper PMC7125110
± gives the standard error. Variants at the floor of the assay were thinned out.

B1: glmS ribozyme (parent)
chain: AUAAAAGCGCCAGAACUACAGAAAUGUAGUUGACGAGGAGGAGGUUUAUCGAAUUUUCGGCGGAUGCCUCCAAA

Columns and labels:
Settings in all cases: with glucosamine-6-phosphate
[1] = variants of: B1; assay: self-cleavage kobs at 40 uM GlcN6P; higher = faster cleavage; RNA array
In short: (§1)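 Using a hybridised Cy3 probe at 37 °C, barcoded ribozyme variants transcribed in situ by E. coli RNA polymerase on sequenced MiSeq chips were monitored across tiles imaged over ~14 h. The flow contained glucosamine-6-phosphate from 40 μM to 10 mM in HEPES/KCl/Mg(OAc)2 buffer. Signals were normalised to baseline and to non-cleaving reference variants before per-tile medians were fit to one- or two-exponential decays to yield kobs. Weighted Michaelis–Menten fits across concentrations gave kcat and KM.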

[2] = variants of: B1; assay: self-cleavage kobs at 160 uM GlcN6P; higher = faster cleavage; RNA array
In short: as §1

[3] = variants of: B1; assay: self-cleavage kobs at 640 uM GlcN6P; higher = faster cleavage; RNA array
In short: as §1

[4] = variants of: B1; assay: self-cleavage kobs at 10000 uM GlcN6P; higher = faster cleavage; RNA array
In short: as §1

[5] = variants of: B1; assay: self-cleavage kobs at 2500 uM GlcN6P; higher = faster cleavage; RNA array
In short: as §1

Row | Variant | self-cleavage kobs at 40 uM GlcN6P [1] [s⁻¹] | self-cleavage kobs at 160 uM GlcN6P [2] [s⁻¹] | self-cleavage kobs at 640 uM GlcN6P [3] [s⁻¹] | self-cleavage kobs at 10000 uM GlcN6P [4] [s⁻¹] | self-cleavage kobs at 2500 uM GlcN6P [5] [s⁻¹]
1 | G40U G62C | < 1e-05 | < 1e-05 | < 1e-05 | < 1e-05 | 
2 | C34U U55A G60U | < 1e-05 |  | < 1e-05 |  | 
3 | A12G A36G G38C | < 1e-05 |  |  |  | 
4 | C10G G32U A53G C58G G60C | < 1e-05 |  |  | 0.000266 ± 4.4e-05 | 
5 | C8A U69G | 8.97e-05 ± 2.7e-05 |  | 0.000846 ± 0.00027 | 0.000773 ± 0.00027 | 0.000592 ± 0.00028
6 | G35U U45A G63C C71G | < 1e-05 |  |  | < 1e-05 | < 1e-05
7 | U47A U54C C71U | 0.000577 ± 0.00018 |  |  | 0.0135 ± 0.0039 | 
8 | C11G A14G G63U C70A | 9.38e-05 ± 2.9e-05 |  |  |  | 0.000123 ± 5.4e-05
9 | C8G G63A | < 1e-05 | < 1e-05 | < 1e-05 | < 1e-05 | < 1e-05
10 | A12U A36U C50A U69G | 9.31e-05 ± 2.3e-05 |  |  | 6.54e-05 ± 1.6e-05 | 0.000241 ± 5.7e-05
11 | A39G G40A A53C | 3.7e-05 ± 1.8e-05 |  |  | 0.00139 ± 0.00041 | 
12 | G41C G44U | < 1e-05 | < 1e-05 | < 1e-05 | < 1e-05 | < 1e-05
13 | A53U U69C | 0.000317 ± 6.8e-05 | 0.000141 ± 5.3e-05 | 0.00104 ± 0.0003 | 0.00288 ± 0.00074 | 
14 | C11A U45C | < 1e-05 |  | < 1e-05 |  | 
15 | C10A G59C | < 1e-05 | < 1e-05 | < 1e-05 | < 1e-05 | < 1e-05
16 | C10U A14C A36G G41A | < 1e-05 | < 1e-05 | < 1e-05 |  | < 1e-05
17 | C8U A53C | < 1e-05 | < 1e-05 | < 1e-05 | < 1e-05 | < 1e-05
18 | C10A C34G A42G C70G | < 1e-05 |  |  | < 1e-05 | 
19 | A42G U55A G63C | < 1e-05 |  |  |  | < 1e-05
20 | A6G C8U U54G C68G | 0.000149 ± 5.2e-05 |  | 0.000705 ± 0.00028 | 7.88e-05 ± 2.2e-05 | 
21 | C10G G43A A48G U54G C58A A64U | < 1e-05 |  | < 1e-05 | < 1e-05 | < 1e-05
22 | G60A G66A | < 1e-05 | < 1e-05 |  |  | 
23 | C34U G37C G51A C68A | < 1e-05 |  |  |  | 
24 | G29U G44C U46A | < 1e-05 |  |  |  | 
25 | U30G G51A | < 1e-05 | < 1e-05 | < 1e-05 |  | 

Row | Variant | self-cleavage kobs at 40 uM GlcN6P [1] [s⁻¹] | self-cleavage kobs at 160 uM GlcN6P [2] [s⁻¹] | self-cleavage kobs at 640 uM GlcN6P [3] [s⁻¹] | self-cleavage kobs at 10000 uM GlcN6P [4] [s⁻¹] | self-cleavage kobs at 2500 uM GlcN6P [5] [s⁻¹]
26 | U54A C61U G62A | < 1e-05 |  | < 1e-05 | < 1e-05 | 
27 | G32A C34U C50U C61A G66A | 4.94e-05 ± 2.4e-05 |  |  |  | 
28 | C16G A53G C67A | 2.96e-05 ± 1.3e-05 |  |  | 0.000212 ± 5.9e-05 | 
29 | C10G C34U G38C A64C C67U | < 1e-05 |  |  | < 1e-05 | 
30 | A42G U56A G60U | < 1e-05 |  |  | < 1e-05 | < 1e-05
31 | A15G U46G A48U G59A | < 1e-05 | < 1e-05 |  | < 1e-05 | < 1e-05
32 | G40U A52C | < 1e-05 | < 1e-05 |  |  | 
33 | A12C C50G | 5.75e-05 ± 1.5e-05 | 0.000244 ± 8.9e-05 | 5.32e-05 ± 1.5e-05 |  | 8.38e-05 ± 1.9e-05
34 | G35C U56G | < 1e-05 | < 1e-05 | < 1e-05 | < 1e-05 | < 1e-05
35 | G7U U46C C70G | < 1e-05 |  |  | < 1e-05 | < 1e-05
36 | A6C C8A | < 1e-05 | < 1e-05 | < 1e-05 | < 1e-05 | < 1e-05
37 | G35C U49C | < 1e-05 |  | < 1e-05 |  | 
38 | G60U U65A | < 1e-05 | < 1e-05 | < 1e-05 | < 1e-05 | < 1e-05
39 | G38U U56G C61A C68G | 0.000276 ± 7.7e-05 |  |  | 6.19e-05 ± 2.1e-05 | 
40 | G41A U46G G51U | < 1e-05 |  |  |  | 
41 | G37U C71U | < 1e-05 |  | < 1e-05 |  | 
42 | G13U A42C A53C C68A | < 1e-05 |  |  |  | 
43 | G7A C10G C50U | < 1e-05 |  |  |  | 
44 | A15G G35C | < 1e-05 |  | < 1e-05 |  | < 1e-05
45 | A6C G43U C67A | < 1e-05 |  |  |  | 
46 | A53C G62U | < 1e-05 | < 1e-05 |  | < 1e-05 | < 1e-05
47 | U30A A53C G60U | < 1e-05 | < 1e-05 | < 1e-05 |  | < 1e-05
48 | A6C C16G C71A | < 1e-05 |  |  |  | 
49 | C8A G43U | < 1e-05 |  |  | < 1e-05 | < 1e-05
50 | U56G G62C | < 1e-05 | < 1e-05 |  |  | < 1e-05

Row | Variant | self-cleavage kobs at 40 uM GlcN6P [1] [s⁻¹] | self-cleavage kobs at 160 uM GlcN6P [2] [s⁻¹] | self-cleavage kobs at 640 uM GlcN6P [3] [s⁻¹] | self-cleavage kobs at 10000 uM GlcN6P [4] [s⁻¹] | self-cleavage kobs at 2500 uM GlcN6P [5] [s⁻¹]
51 | A6G G62C | < 1e-05 | < 1e-05 | < 1e-05 | < 1e-05 | < 1e-05
52 | A6G C16G C67G | < 1e-05 |  |  |  | 
53 | U31G C68A | < 1e-05 |  | 3.5e-05 ± 1.6e-05 |  | 8.49e-05 ± 1.9e-05
54 | A14C U45G A52C G63A | < 1e-05 |  |  |  | 
55 | C11U A12U C34A G66C | < 1e-05 |  | < 1e-05 | < 1e-05 | < 1e-05
56 | G13C A36C C71G | < 1e-05 |  | < 1e-05 |  | 
57 | A14G G35U G37U G44U C71U | < 1e-05 |  |  |  | < 1e-05
58 | A6U A15U G63A C70U | < 1e-05 |  |  |  | 
59 | G35C A39C U49A A53U | < 1e-05 |  |  |  | 
60 | G9A A53C | < 1e-05 | < 1e-05 | < 1e-05 | < 1e-05 | < 1e-05
61 | U30G A52C | < 1e-05 | < 1e-05 | < 1e-05 |  | < 1e-05
62 | A15U G29U G60C | < 1e-05 |  |  |  | 
63 | C19U G38A | < 1e-05 |  |  |  | 
64 | G9U U45G A53G G62U | < 1e-05 |  |  | < 1e-05 | 
65 | C50G A52C U69A | 8.7e-05 ± 2.7e-05 |  |  | 4.8e-05 ± 1.6e-05 | 
66 | C11G C58A A64G | < 1e-05 |  |  |  | 
67 | A15C G37C G40A G43U | < 1e-05 |  |  | < 1e-05 | 
68 | C50U G51A | < 1e-05 |  | < 1e-05 | < 1e-05 | < 1e-05
69 | G32C G37C A48U G59C | < 1e-05 |  |  |  | 
70 | C34U G41C G59A A64G | < 1e-05 | < 1e-05 | < 1e-05 |  | 
71 | C34G G37U G38C U47G U56C | < 1e-05 |  |  | < 1e-05 | 
72 | C34U U69G | 0.000246 ± 5.1e-05 | 5.32e-05 ± 2.5e-05 | 0.000467 ± 0.00011 | 0.000285 ± 4.5e-05 | 0.00161 ± 0.00069
73 | U47G G51A | < 1e-05 |  |  |  | 
74 | A12C C34U G44C U56A U57A | < 1e-05 |  |  | < 1e-05 | 
75 | C16A G60U | < 1e-05 | < 1e-05 | < 1e-05 | < 1e-05 | < 1e-05

Row | Variant | self-cleavage kobs at 40 uM GlcN6P [1] [s⁻¹] | self-cleavage kobs at 160 uM GlcN6P [2] [s⁻¹] | self-cleavage kobs at 640 uM GlcN6P [3] [s⁻¹] | self-cleavage kobs at 10000 uM GlcN6P [4] [s⁻¹] | self-cleavage kobs at 2500 uM GlcN6P [5] [s⁻¹]
76 | C16G A48C | < 1e-05 | < 1e-05 | < 1e-05 | 4.28e-05 ± 1.7e-05 | 
77 | G29A U47G | 2.24e-05 ± 1.1e-05 |  | 0.000161 ± 6.4e-05 | 0.000713 ± 0.00011 | 
78 | C11G C50A A52U G63A | < 1e-05 |  |  | < 1e-05 | 
79 | C8G U31C A39G | < 1e-05 |  |  |  | 
80 | A42C G59C C67G | < 1e-05 |  |  | < 1e-05 | < 1e-05
81 | U30C U47C C58A U65A | < 1e-05 |  |  |  | 
82 | U31A G37A C50G A53U C67U | 5.38e-05 ± 1.9e-05 |  |  |  | 
83 | U56A G59C | < 1e-05 | < 1e-05 | < 1e-05 | < 1e-05 | < 1e-05
84 | C8G G63U | < 1e-05 |  |  | < 1e-05 | 
85 | A15C C61A | < 1e-05 |  |  | < 1e-05 | 
86 | A6G A48U G66U U69C | < 1e-05 |  |  | < 1e-05 | 
87 | A6G C70U | < 1e-05 | < 1e-05 |  |  | 
88 | A6U G13C | < 1e-05 |  | < 1e-05 |  | < 1e-05
89 | A14G A33U G43A | < 1e-05 |  |  | < 1e-05 | 
90 | C11U G29U A39U A64U | < 1e-05 |  |  |  | 
91 | G40C C50G | < 1e-05 | < 1e-05 |  | < 1e-05 | < 1e-05
92 | C11G U55C | < 1e-05 | < 1e-05 | < 1e-05 |  | 
93 | G35C U46G A48G U65C C68A | < 1e-05 |  |  |  | 
94 | C8G U46G | < 1e-05 | < 1e-05 | < 1e-05 | < 1e-05 | < 1e-05
95 | A6C G7U G35A C58U G60A | < 1e-05 |  | < 1e-05 |  | 
96 | U45G G62A C70G C71G | < 1e-05 |  |  |  | 
97 | C10U G40U U49A | < 1e-05 |  | < 1e-05 |  | 
98 | C11A G41U | < 1e-05 | < 1e-05 | < 1e-05 |  | < 1e-05
